In publication PMC6534611:

Molecular target: Ptch1 variant △893-899/T903A/K904A/Q905A/N1000Q (human) (UniProt Q13635)
Experiment: not stated; Ptch1 variant alone or in complex with ShhNp; Supplementary Fig. 8c

Ptch1 variant △893-899/T903A/K904A/Q905A/N1000Q (from UniProt Q13635 1-1305) (receptor)
stoichiometry N: 4
